In patent US20140087995A1 (published 2014):
Numbered stars: 1 amine (or outer) side, 2 acyl side, 3 side chain; on linkers, the order of the positions; unused ones are H or OH. Bridge positions count the residues as written; N and C are the ends. Side chains are listed from the residue outwards. Ends that are not written are not given here. * marks the point of attachment. C20 diacid = O=C(O)CCCCCCCCCCCCCCCCCCC(=O)*; γGlu = O=C(O)[C@H](CCC(=O)[*:2])N[*:1]; AEEA = NCCOCCOCC(=O)O

T1: human calcitonin receptor (human, UniProt P30988 25-474)
T1 construct: whole, on cells; Assay used cell membranes, not intact cells; also called hCTR; hCT
T1 sequence (looked up): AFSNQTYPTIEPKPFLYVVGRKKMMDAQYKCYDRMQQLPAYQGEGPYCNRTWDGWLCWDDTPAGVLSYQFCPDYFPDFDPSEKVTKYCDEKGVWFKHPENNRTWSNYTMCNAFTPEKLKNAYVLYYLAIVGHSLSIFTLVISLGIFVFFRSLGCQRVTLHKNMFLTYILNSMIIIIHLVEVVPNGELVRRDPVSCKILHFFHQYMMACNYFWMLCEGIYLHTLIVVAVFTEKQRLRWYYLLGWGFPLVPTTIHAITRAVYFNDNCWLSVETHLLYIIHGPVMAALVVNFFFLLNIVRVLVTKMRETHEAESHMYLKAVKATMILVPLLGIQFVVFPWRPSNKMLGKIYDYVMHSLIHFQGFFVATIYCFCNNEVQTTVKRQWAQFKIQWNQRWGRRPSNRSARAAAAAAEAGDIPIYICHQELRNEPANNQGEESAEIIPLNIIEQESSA

T2: human amylin receptor (amylin 3(a) receptor: human calcitonin receptor with RAMP-3) (human, UniProt P30988 25-474; O60896 24-148)
T2 construct: whole, on cells; Assay used cell membranes of the Amylin 3(a)/CRE-luc BHK cells, not intact cells; also called hAmylin-R; hAmylinR
T2 sequence (looked up) 1: T1 sequence (looked up)
T2 sequence (looked up) 2: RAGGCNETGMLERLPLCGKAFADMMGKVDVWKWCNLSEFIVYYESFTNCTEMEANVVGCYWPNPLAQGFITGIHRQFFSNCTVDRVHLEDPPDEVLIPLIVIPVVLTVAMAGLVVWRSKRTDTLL

B1: N^ε1-[2-[2-[2-(19-carboxynonadecanoylamino)ethoxy]ethoxy]acetyl]-[His14,Arg17,Pro21,Pro27]-h-amylin (peptide)
peptide: K([AEEA-C20 diacid])CNTATCATQRLAHFLRHSSPNFGAIPSSTNVGSNTY-NH2
modifications: disulfide 2-7; N-terminus assumed
SMILES: CC[C@H](C)[C@H](NC(=O)[C@H](C)NC(=O)CNC(=O)[C@H](Cc1ccccc1)NC(=O)[C@H](CC(N)=O)NC(=O)[C@@H]1CCCN1C(=O)[C@H](CO)NC(=O)[C@H](CO)NC(=O)[C@H](Cc1c[nH]cn1)NC(=O)[C@H](CCCNC(=N)N)NC(=O)[C@H](CC(C)C)NC(=O)[C@H](Cc1ccccc1)NC(=O)[C@H](Cc1c[nH]cn1)NC(=O)[C@H](C)NC(=O)[C@H](CC(C)C)NC(=O)[C@H](CCCNC(=N)N)NC(=O)[C@H](CCC(N)=O)NC(=O)[C@@H](NC(=O)[C@H](C)NC(=O)[C@@H]1CSSC[C@H](NC(=O)[C@@H](N)CCCCNC(=O)COCCOCCNC(=O)CCCCCCCCCCCCCCCCCCC(=O)O)C(=O)N[C@@H](CC(N)=O)C(=O)N[C@@H]([C@@H](C)O)C(=O)N[C@@H](C)C(=O)N[C@@H]([C@@H](C)O)C(=O)N1)[C@@H](C)O)C(=O)N1CCC[C@H]1C(=O)N[C@@H](CO)C(=O)N[C@@H](CO)C(=O)N[C@H](C(=O)N[C@@H](CC(N)=O)C(=O)N[C@H](C(=O)NCC(=O)N[C@@H](CO)C(=O)N[C@@H](CC(N)=O)C(=O)N[C@H](C(=O)N[C@@H](Cc1ccc(O)cc1)C(N)=O)[C@@H](C)O)C(C)C)[C@@H](C)O
notes: also called compound 90
B2: N^ε1-[2-[2-[2-[[2-[2-[2-[[(4S)-4-carboxy-4-(19-carboxynonadecanoylamino)butanoyl]amino]ethoxy]ethoxy]acetyl]amino]ethoxy]ethoxy]acetyl]-[Arg17,Pro21,Pro27,Arg34 … (peptide)
peptide: K([AEEA-AEEA-γGlu-C20 diacid])CNTATCATQRLANFLRHSSPNFGAIPSSTNVGRNTY-NH2
modifications: disulfide 2-7; N-terminus assumed
SMILES: CC[C@H](C)[C@H](NC(=O)[C@H](C)NC(=O)CNC(=O)[C@H](Cc1ccccc1)NC(=O)[C@H](CC(N)=O)NC(=O)[C@@H]1CCCN1C(=O)[C@H](CO)NC(=O)[C@H](CO)NC(=O)[C@H](Cc1c[nH]cn1)NC(=O)[C@H](CCCNC(=N)N)NC(=O)[C@H](CC(C)C)NC(=O)[C@H](Cc1ccccc1)NC(=O)[C@H](CC(N)=O)NC(=O)[C@H](C)NC(=O)[C@H](CC(C)C)NC(=O)[C@H](CCCNC(=N)N)NC(=O)[C@H](CCC(N)=O)NC(=O)[C@@H](NC(=O)[C@H](C)NC(=O)[C@@H]1CSSC[C@H](NC(=O)[C@@H](N)CCCCNC(=O)COCCOCCNC(=O)COCCOCCNC(=O)CC[C@H](NC(=O)CCCCCCCCCCCCCCCCCCC(=O)O)C(=O)O)C(=O)N[C@@H](CC(N)=O)C(=O)N[C@@H]([C@@H](C)O)C(=O)N[C@@H](C)C(=O)N[C@@H]([C@@H](C)O)C(=O)N1)[C@@H](C)O)C(=O)N1CCC[C@H]1C(=O)N[C@@H](CO)C(=O)N[C@@H](CO)C(=O)N[C@H](C(=O)N[C@@H](CC(N)=O)C(=O)N[C@H](C(=O)NCC(=O)N[C@@H](CCCNC(=N)N)C(=O)N[C@@H](CC(N)=O)C(=O)N[C@H](C(=O)N[C@@H](Cc1ccc(O)cc1)C(N)=O)[C@@H](C)O)C(C)C)[C@@H](C)O
notes: also called compound 95
B3: N^ε1-[2-[2-[2-[[2-[2-[2-[[(4S)-4-carboxy-4-(19-carboxynonadecanoylamino)butanoyl]amino]ethoxy]ethoxy]acetyl]amino]ethoxy]ethoxy]acetyl]-[Arg17,Pro21,Pro27,His34 … (peptide)
peptide: K([AEEA-AEEA-γGlu-C20 diacid])CNTATCATQRLANFLRHSSPNFGAIPSSTNVGHNTY-NH2
modifications: disulfide 2-7; N-terminus assumed
SMILES: CC[C@H](C)[C@H](NC(=O)[C@H](C)NC(=O)CNC(=O)[C@H](Cc1ccccc1)NC(=O)[C@H](CC(N)=O)NC(=O)[C@@H]1CCCN1C(=O)[C@H](CO)NC(=O)[C@H](CO)NC(=O)[C@H](Cc1c[nH]cn1)NC(=O)[C@H](CCCNC(=N)N)NC(=O)[C@H](CC(C)C)NC(=O)[C@H](Cc1ccccc1)NC(=O)[C@H](CC(N)=O)NC(=O)[C@H](C)NC(=O)[C@H](CC(C)C)NC(=O)[C@H](CCCNC(=N)N)NC(=O)[C@H](CCC(N)=O)NC(=O)[C@@H](NC(=O)[C@H](C)NC(=O)[C@@H]1CSSC[C@H](NC(=O)[C@@H](N)CCCCNC(=O)COCCOCCNC(=O)COCCOCCNC(=O)CC[C@H](NC(=O)CCCCCCCCCCCCCCCCCCC(=O)O)C(=O)O)C(=O)N[C@@H](CC(N)=O)C(=O)N[C@@H]([C@@H](C)O)C(=O)N[C@@H](C)C(=O)N[C@@H]([C@@H](C)O)C(=O)N1)[C@@H](C)O)C(=O)N1CCC[C@H]1C(=O)N[C@@H](CO)C(=O)N[C@@H](CO)C(=O)N[C@H](C(=O)N[C@@H](CC(N)=O)C(=O)N[C@H](C(=O)NCC(=O)N[C@@H](Cc1c[nH]cn1)C(=O)N[C@@H](CC(N)=O)C(=O)N[C@H](C(=O)N[C@@H](Cc1ccc(O)cc1)C(N)=O)[C@@H](C)O)C(C)C)[C@@H](C)O
notes: also called compound 97

Each binder was assayed against T1, human calcitonin receptor (assay: SPA competition with 125I-calcitonin on membranes of BHK cells with human calcitonin receptor (Assay VII)).
Method: Membranes were prepared in the following way; the cells were rinsed with PBS and incubated with Versene for approximately 5 min before harvesting. The cells were flushed with PBS and the cell-suspension was centrifuged for 5 min at 1000 rpm. Cells were homogenized (Ultrathurrax) in a buffer containing 20 mM Na-HEPES and 10 mM EDTA (pH 7.4) and centrifuged at 20.000 rpm for 15 min. The resulting pellet was resuspended, homogenized and centrifuged (20.000 rpm, 15 min) in a buffer containing 20 mM Na-HEPES and 0.1 mM EDTA (pH 7.4, buffer 2). The resulting pellet was resuspended in buffer 2 and protein concentration was measured (BCA protein Assay, Pierce). The homogenate was kept cold during the whole procedure. The membranes were kept at −80° C. until use. Assay was performed in a 384 well Optiplate (PerkinElmer) in a total volume of 40 ul. Membranes were mixed with SPA beads. Final concentration of membranes 35 ng/μL final and Final concentration of SPA beads was 0.05 mg/well. Test-compounds were dissolved in DMSO and further diluted in assay buffer (50 mM Hepes, pH 7.4, 1 mM CaCl2, 5 mM MgCl₂, 0.1% OA and 0.02% Tween20). […] The final mixture was incubated for 120 min with shaking at 400 rpm at 25° C. prior to centrifugation (1500 rpm, 10 min). Samples were analyzed on TopCounter™ (Packard). The […] was calculated using (one site binding competition analysis) GraphPad Prism5 as a measure of receptor affinity.

| Binder | IC50 |
| --- | --- |
| B1 | 2.57 nM |
| B2 | 61.3 nM |
| B3 | 58.9 nM |

Each binder was assayed against T1, human calcitonin receptor (assay: ratio IC50 hCTR / IC50 hAmylin-R (reference: human amylin receptor), SPA competition assays).
Method: The resulting pellet was resuspended, homogenized and centrifuged (20.000 rpm, 15 min) in a buffer containing 20 mM Na-HEPES and 0.1 mM EDTA (pH 7.4, buffer 2). The resulting pellet was resuspended in buffer 2 and protein concentration was measured (BCA protein Assay, Pierce). The homogenate was kept cold during the whole procedure. The membranes were kept at −80° C. until use. The assay was performed in a 384 well Optiplate (PerkinElmer) in a total volume of 40 ul. Membranes were mixed with SPA beads. Final concentration of membranes 35 ng/μL final and SPA beads was 0.05 mg/well. Test-compounds were dissolved in DMSO and further diluted in assay buffer (50 mM Hepes, pH 7.4, 1 mM CaCl2, 5 mM MgCl₂, 0.1% OA and 0.02% Tween20). […] The final mixture was incubated with shaking at 400 rpm for 120 min at 25° C. prior to centrifugation (1500 rpm, 10 min). Samples were analyzed on TopCounter™ (Packard). The IC₅₀ was calculated using (one site binding competition analysis) GraphPad Prism5 as a measure of receptor affinity.
Membranes were prepared in the following way; the cells were rinsed with PBS and incubated with Versene for approximately 5 min before harvesting. The cells were flushed with PBS and the cell-suspension was centrifuged for 5 min at 1000 rpm. Cells were homogenized (Ultrathurrax) in a buffer containing 20 mM Na-HEPES and 10 mM EDTA (pH 7.4) and centrifuged at 20.000 rpm for 15 min. The resulting pellet was resuspended, homogenized and centrifuged (20.000 rpm, 15 min) in a buffer containing 20 mM Na-HEPES and 0.1 mM EDTA (pH 7.4, buffer 2). The resulting pellet was resuspended in buffer 2 and protein concentration was measured (BCA protein Assay, Pierce). The homogenate was kept cold during the whole procedure. The membranes were kept at −80° C. until use. Assay was performed in a 384 well Optiplate (PerkinElmer) in a total volume of 40 ul. Membranes were mixed with SPA beads.

| Binder | Ratio hCT/hAmylin binding |
| --- | --- |
| B1 | 42.2 |
| B2 | 63.4 |
| B3 | 104 |

These binders were tested against T2, human amylin receptor (amylin 3(a) …) (assay: SPA competition with 125I-rat amylin on membranes of BHK cells with human calcitonin receptor and RAMP-3 (Assay V)).
Method: The binding assay was performed using scintillation proximity assay (SPA) beads (RPNQ0001) from PerkinElmer and cell membranes from the Amylin 3(a)/CRE-luc cells (as described in Assay (II)) were used. Membranes were prepared in the following way; the cells were rinsed with PBS and incubated with Versene for approximately 5 min before harvesting. The cells were flushed with PBS and the cell-suspension was centrifuged for 5 min at 1000 rpm. Cells were homogenized (ultrathurrax) in a buffer containing 20 mM Na-HEPES and 10 mM EDTA (pH 7.4) and centrifuged at 20.000 rpm for 15 min. The resulting pellet was resuspended, homogenized and centrifuged (20.000 rpm, 15 min) in a buffer containing 20 mM Na-HEPES and 0.1 mM EDTA (pH 7.4, buffer 2). The resulting pellet was resuspended in buffer 2 and protein concentration was measured (BCA protein Assay, Pierce). The homogenate was kept cold during the whole procedure. The membranes were kept at −80° C. until use. The assay was performed in a 384 well Optiplate (PerkinElmer) in a total volume of 40 ul. Membranes were mixed with SPA beads. Final concentration of membranes 35 ng/μL final and SPA beads was 0.05 mg/well. Test-compounds were dissolved in DMSO and further diluted in assay buffer (50 mM Hepes, pH 7.4, 1 mM CaCl2, 5 mM MgCl₂, 0.1% OA and 0.02% Tween20). […] The final mixture was incubated with shaking at 400 rpm for 120 min at 25° C. prior to centrifugation (1500 rpm, 10 min). Samples were analyzed on TopCounter™ (Packard). The IC₅₀ was calculated using (one site binding competition analysis) GraphPad Prism5 as a measure of receptor affinity.

| Binder | IC50 |
| --- | --- |
| B1 | 0.061 nM |
| B2 | 0.967 nM |
| B3 | 0.568 nM |
